Assay results: the RNAGym collection of RNA variant scans (doi:10.1073/pnas.2313332121)
Variants at the floor of the assay were thinned out.

B1: TPR 5TU (parent)
chain: GGAUCUUCUCGAUCUAACAAAAAAGACAAAUCUGCCACAAAGCUUGAGAGCAUCUUCGGAUGCAGAGGCGGCAGCCUUCGGUGGCGCGAUAGCGCCAACGUUCUCAACUAUGACACGCAAAACGCGUGCUCCGUUGAAUGGAGUUUAUCAUG

Variants of: B1
Assay: polymerase ribozyme fitness, log enrichment relative to wild type (log ratio); higher = more active; in vitro selection for triplet polymerase activity
Outline: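 Fitness measures genotype enrichment against wild-type enrichment on a logarithmic scale, with inverse-variance-weighted averaging of replicates. The logarithm is base 2, and genotypes were kept only with ≥10 input reads and ≥1 read per output in Illumina sequencing. The sequenced libraries came from one triplicate in vitro selection round, including frozen incubation at −7 °C, of PCR-built, transcribed mutant libraries of each subunit of a heterodimeric triplet polymerase ribozyme.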

| Variant | polymerase ribozyme fitness (log ratio) |
| --- | --- |
| A47U U55C G58C | -0.823 |
| A47G G59C G62U G83A C87U U101G A138U | ≤ -4.2 |
| G46C G68A | -4.14 |
| A49C G70U A97U A107G G128U G136A U139A | ≤ -4.2 |
| A47U G48U U55A U82G U134C | -3.1 |
| A49C C96U | -3.23 |
| A47G G94C | -0.418 |
| G46A G70U C85G U130A | ≤ -4.2 |
| A47C A52G U53A G86A G94C | ≤ -4.2 |
| A47G U55A G71U C85G C95U | ≤ -4.2 |
| G46C U55G U144A | -1.97 |
| U45G G59A G84A A89G C118U | -3.18 |
| G48C G62A | -3.59 |
| A47C C85A C93U | ≤ -4.2 |
| U45A G59C C85U G86A G92U U146G | ≤ -4.2 |
| G46U U53A U90C | ≤ -4.2 |
| G46C A47C G48A U82C | ≤ -4.2 |
| A47C C51U A52C C75A C96U C103A A110C | ≤ -4.2 |
| G48U C57U G58C G62C G67A U82A G86A | ≤ -4.2 |
| A47U G68A U82A A97G | ≤ -4.2 |
| G46C C69A G81A | -1.82 |

| Variant | polymerase ribozyme fitness (log ratio) |
| --- | --- |
| A47C U56C C93U A106C | -4.09 |
| A47C C76A C87G C96U A115G | ≤ -4.2 |
| A49C C54U G84A C103U C116G U130G | ≤ -4.2 |
| A47U G50A C87G C105G C114U C129U | ≤ -4.2 |
| A47U U55A C95A A122G | -0.42 |
| G48A G50A G58C C87G | ≤ -4.2 |
| A49C A52U C132G | ≤ -4.2 |
| A47G C85U A138G | -4.18 |
| G46C C87A G94C U101A U134A G141U | ≤ -4.2 |
| A47C A89G A97U C131G | ≤ -4.2 |
| U45A G86A | -3.54 |
| A49C C54A | ≤ -4.2 |
| U45G C93U G141C | ≤ -4.2 |
| G48A A52G | 0.139 |
| A47C U61A C85G C108A | ≤ -4.2 |
| G48C C118G A120G | -3.82 |
| G46U U55A G84U G126C | -1.83 |
| A49C C103A U139A | ≤ -4.2 |
| G46C C85G G88A C118U U144G | ≤ -4.2 |
| G48C G59C U82G | 0.0275 |
| G46C G48A C76G U78G G83A G143C | -4.2 |

| Variant | polymerase ribozyme fitness (log ratio) |
| --- | --- |
| A47U G83C A98U | -0.618 |
| G48A C85U C96A C116G | -2.37 |
| G46A G67A C87A A97C G143C | ≤ -4.2 |
| A47G U55A A89C C95U U146A | -1.95 |
| U45C U56A A64C G74A G94C C114U A115U | ≤ -4.2 |
| G48U G80U C96G | ≤ -4.2 |
| G48U G86C | -3.31 |
| A47G G58C C93A U101G | -3.96 |
| U45G U55G C76U G84A | -3.76 |
| A47C G136A | 0.0265 |
| A47G G88A C96U A120G G143A | ≤ -4.2 |
| G48U C132A U139G | -3.31 |
| A47C C108U U146C | -3.2 |
| A47C G48U G50A U55A G94A | ≤ -4.2 |
| G46U G50C A73G C76G A113U U139C | ≤ -4.2 |
| G46A G50C C79A G84U C95U A115C | ≤ -4.2 |
| A49C C87U U151G | ≤ -4.2 |
| U45C G50U C57G C87G A137C C149A | ≤ -4.2 |
| A47G C69G | -1.95 |
| A47G C69U | -1.14 |
| G46A C75U C85A A106G | ≤ -4.2 |

| Variant | polymerase ribozyme fitness (log ratio) |
| --- | --- |
| G46A G59A | 0.222 |
| G46C C54A C96G C103G G141U | ≤ -4.2 |
| U45A G136C | ≤ -4.2 |
| U45A U61A | -4.16 |
| G48C A52C C85G G92C A119U G126A A138U | ≤ -4.2 |
| A47G G50C U53A A97U G124C | ≤ -4.2 |
| A47G | 0.239 |
| A47C | -0.224 |
| A47U | -0.143 |
| G46C A47C C72U C103A | ≤ -4.2 |
| A47C C96U C103A C114G C123U | ≤ -4.2 |
| A47C A110U | ≤ -4.2 |
| U45G U56A G88A C93G A119G G143U | ≤ -4.2 |
| G46C G59A A66G G83A A120U C123G | ≤ -4.2 |
| A47C C96U | 0.15 |
| G46A U53G U56A A91C U104G G128U U146C | ≤ -4.2 |
| A47U G50A C129U | -3.09 |
| G46U C96U A142G | -1.19 |
| G46A C51A A98G C125U | ≤ -4.2 |
| A49C G50C U78C G140C | ≤ -4.2 |
